# ± gives the standard deviation of the averaged measurements.
# System: ATP
# Assay: switch fluorescence ratio, 500 uM ATP over buffer (Cy3 cluster intensity, sum of 5 cycles each) (fold (ratio)); higher = stronger signal-on switching upon ATP binding; sequences stand for … in TCGTCGGCAGCGTCAGATGTGTATAAGAGACAGTTTTTTTTTTTTTTTTTTTTTTTTT…TC
# Conditions: aptamer strand: ATP DNA aptamer (quencher-CACCTGGGGGAGTATTGCGGAGGAAGG + anchor), 100 nM annealed; ATP concentration: 500 uM
# Procedure, shortened: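 Five buffer/ATP imaging cycles were run on Cy3-labelled switching-strand clusters on a modified Illumina MiSeq flow-cell, with NaOH stripping and re-annealing between cycles. In each cycle, clusters annealed to 100 nM quencher-labelled ATP aptamer were imaged in selection buffer, then after 15 min with 500 uM ATP at 22 °C. Per cluster, the fluorescence ratio is summed target-cycle over summed buffer-cycle Cy3 intensity, averaged per switch-domain sequence. Only clusters within 100-1000 RFU were kept.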
# 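Note: ATP exposure 15 min at 22 °C before imaging.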
row,Sequence,switch fluorescence ratio
1,GCTCCAGGGG,2.88 ± 2.5
2,GCTCCAGGTA,1.577 ± 0.0021
3,GCTCCATTTG,0.983 ± 0.021
4,GCTCCCTTTC,1.84 ± 0.08
5,GCTCCTAAAA,1.1039 ± 0.00034
6,GCTCGAGTTG,0.9967 ± 0.0094
7,GCTCGATTGG,0.9766 ± 0.0057
8,GCTCGCCGAT,1.01 ± 0.016
9,GCTCGCCTTA,0.999 ± 0.039
10,GCTCGGCCCG,1.04 ± 0.061
11,GCTCGGGTTG,0.984 ± 0.041
12,GCTCGTTAGG,0.995 ± 0.029
13,GCTCTCATAT,1.027 ± 0.0086
14,GCTCTGAGGG,1.056 ± 0.009
15,GCTCTGTGGG,0.967 ± 0.024
16,GCTCTGTGTT,0.993 ± 0.017
17,GCTCTGTTTT,1 ± 0.011
18,GCTCTTGACA,1 ± 0.011
19,GCTCTTGGTT,1.02 ± 0.045
20,GCTGAAGGCT,0.962 ± 0.03
21,GCTGAAGGGT,1.012 ± 0.0019
22,GCTGAATAAT,1.01 ± 0.029
23,GCTGAATTTG,0.989 ± 0.058
24,GCTGAGGCAA,1.06 ± 0.015
25,GCTGAGGCAG,1.002 ± 0.0046

row,Sequence,switch fluorescence ratio
1,GCTGAGGGGA,1.03 ± 0.049
2,GCTGAGGGGG,0.991 ± 0.041
3,GCTGATAATG,0.978 ± 0.014
4,GCTGATGCGT,1.01 ± 0.038
5,GCTGATTGGC,1.05 ± 0.13
6,GCTGATTTGT,0.989 ± 0.038
7,GCTGCAGATT,0.988 ± 0.03
8,GCTGCAGGGT,0.9922 ± 0.009
9,GCTGCCGTGT,0.967 ± 0.064
10,GCTGCGGGAT,1.16 ± 0.15
11,GCTGCGGGG,1.01 ± 0.053
12,GCTGCTGGGC,0.968 ± 0.036
13,GCTGCTTAGC,1.02 ± 0.018
14,GCTGCTTGGG,1.01 ± 0.019
15,GCTGGAAGTA,0.97 ± 0.046
16,GCTGGAATAT,1 ± 0.039
17,GCTGGAATTG,1 ± 0.0077
18,GCTGGACTCG,1.053 ± 0.0015
19,GCTGGACTTG,0.998 ± 0.053
20,GCTGGAGGAC,0.996 ± 0.032
21,GCTGGAGGGG,0.985 ± 0.018
22,GCTGGATTGG,0.965 ± 0.016
23,GCTGGGAGGC,0.947 ± 0.071
24,GCTGGGCCGA,1.01 ± 0.036
25,GCTGGGGAAA,0.996 ± 0.032

row,Sequence,switch fluorescence ratio
1,GCTGGGGGAA,0.98 ± 0.019
2,GCTGGGGTTT,0.996 ± 0.043
3,GCTGGGTCTG,1 ± 0.017
4,GCTGGGTGTG,1.03 ± 0.011
5,GCTGGTACAG,1 ± 0.022
6,GCTGGTACTG,0.986 ± 0.037
7,GCTGGTAGTT,0.995 ± 0.028
8,GCTGGTGTGG,0.995 ± 0.011
9,GCTGGTTAGG,1 ± 0.032
10,GCTGGTTCTG,0.982 ± 0.054
11,GCTGGTTGAC,0.981 ± 0.017
12,GCTGGTTGGG,0.98 ± 0.014
13,GCTGTAAGAA,1.01 ± 0.037
14,GCTGTACGCT,0.9539 ± 0.0027
15,GCTGTACTCA,1.43 ± 0.13
16,GCTGTAGACT,0.992 ± 0.038
17,GCTGTAGGGC,1.015 ± 0.0034
18,GCTGTAGTGG,0.998 ± 0.051
19,GCTGTAGTTG,0.993 ± 0.019
20,GCTGTCTATC,1.01 ± 0.027
21,GCTGTGGCGT,1.02 ± 0.04
22,GCTGTGGGGG,0.966 ± 0.013
23,GCTGTTAGTG,0.98 ± 0.013
24,GCTGTTCCCG,1.04 ± 0.071
25,GCTGTTCTTC,0.985 ± 0.013

row,Sequence,switch fluorescence ratio
1,GCTTAAACGG,1.02 ± 0.073
2,GCTTAAAGGC,1.01 ± 0.03
3,GCTTACGTCA,1.05 ± 0.086
4,GCTTAGGGGG,1.031 ± 0.0069
5,GCTTAGTTGT,1.015 ± 0.0065
6,GCTTATATAT,0.98542 ± 0.00086
7,GCTTATATTT,1.045 ± 0.0055
8,GCTTCCTGCC,1.4 ± 0.027
9,GCTTCTATTG,1.001 ± 0.00067
10,GCTTCTGCCT,1 ± 0.013
11,GCTTCTTAGT,1.028 ± 0.0053
12,GCTTGACG,1.004 ± 0.01
13,GCTTGATGAA,1.034 ± 0.0013
14,GCTTGATTAG,0.9963 ± 0.0018
15,GCTTGATTGG,1.04 ± 0.019
16,GCTTGGCAAC,1.02 ± 0.012
17,GCTTGGCTGT,0.999 ± 0.017
18,GCTTGGGGGT,0.987 ± 0.018
19,GCTTGTAGTT,0.9865 ± 0.0072
20,GCTTGTGCAT,0.989 ± 0.028
21,GCTTGTTTGG,0.961 ± 0.013
22,GCTTGTTTTT,0.997 ± 0.018
23,GCTTTAGAGA,0.985 ± 0.019
24,GCTTTCGGGC,1.01 ± 0.045
25,GCTTTCGTTA,1.018 ± 0.0071

# — the supplement of paper PMC10126150
